Laboratory results published in publication PMC2173521.

Experiments:
[1] = target: N-1 peptide (derived from HRA of the SV5 F protein) (SV5 (W3A strain))
[2] = target: N-1 peptide (derived from HRA of the SV5 F protein) (SV5 (W3A strain)); assay: AUC

Row | Substance | IC50 inhibition of cell–cell fusion by SV5 F (T7 luciferase reporter gene assay) [1] [nM] | Mobs/Mcalc (mol wt found over that calculated for one N-1/C-1 heterodimer) [2]
1 | C-1 peptide (derived from HRB of the SV5 F protein), wild type | 38 | 
2 | C-1 peptide I449A | 115 | 2.8
3 | C-1 peptide I449F | 151 | 2.9
4 | C-1 peptide I449G | 271 | 2.9
5 | C-1 peptide I449L | 54 | 2.8
6 | C-1 peptide I449V | 58 | 3
7 | C-1 peptide I449W | 146 | 
8 | C-1 peptide L447A | 92 | 2.8
9 | C-1 peptide L447F | 100 | 2.9
10 | C-1 peptide L447G | 150 | 2.7
11 | C-1 peptide L447I | 50 | 2.8
12 | C-1 peptide L447V | 83 | 2.8
13 | C-1 peptide L447W | 106 | 3.1
